Experimental data as given in US20250197505A1 (DREN BIO, published 2025).

B1: anti-CD94 antibody clone 1M4 (antibody, V domains shown)
VH: QLVESGGGLVQPGGSLRLACAASGFTFSNYAMNWVRQAPGKGLEWVSVISGSGDTTYCADSVKGRFTISRDNSKNTLHLQLNSLRAEDTAVYYCAKNCYGSGSYYNHFDYWGQGTLVTVSS
VL: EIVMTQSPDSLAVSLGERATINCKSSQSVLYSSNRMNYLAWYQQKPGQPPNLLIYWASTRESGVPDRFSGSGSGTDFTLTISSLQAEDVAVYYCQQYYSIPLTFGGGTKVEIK
B2: anti-CD94 antibody clone 1E4 (antibody, V domains shown)
VH: QVTLRESGPALVKPTQTLTLTCTFSGFSLSTSDLCVSWIRQPPGKALEWLALIDWNDDKYYSTSLQTRLTISKDTSKNQVVLTMTNMDPVDTATYYCARTIAAAGPYDAFDIWGQGTMVTVSS
VL: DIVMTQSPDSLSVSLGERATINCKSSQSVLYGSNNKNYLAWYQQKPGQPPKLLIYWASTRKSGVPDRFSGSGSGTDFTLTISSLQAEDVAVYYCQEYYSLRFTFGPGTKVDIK
notes: also called fucosylated 1E4

Columns and labels:
[1] = target: T1, human CD94 expressed on cells (human primary NK cells in PBMCs; HEK cells expressing human CD94) (human, UniProt Q13241 1-179); assay: cell-based or functional assay
T1 sequence (looked up): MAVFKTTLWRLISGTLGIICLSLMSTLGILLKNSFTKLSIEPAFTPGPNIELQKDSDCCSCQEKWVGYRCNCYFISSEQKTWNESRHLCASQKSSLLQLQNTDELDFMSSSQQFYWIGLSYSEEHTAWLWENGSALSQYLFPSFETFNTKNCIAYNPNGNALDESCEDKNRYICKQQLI

[2] = target: T1, human CD94 expressed on cells (human …); assay: HLA-E tetramer blocking assay, flow cytometry on CD3-CD56+ NK cells in healthy donor PBMCs; antibody at one saturating concentration, blocked ligand PE-labelled HLA-E tetramer; percent blocking = 100-((percent HLA-E positive with antibody)/(percent HLA-E positive with isotype)*100)
Description: Healthy donor PBMCs were incubated with anti-CD94 antibodies. PE labeled HLA-E tetramer was then incubated with the cell and antibody mixture, and detected using flow cytometry. For HP-3B1, 131412, 12K45, DX22, 1M4 and 1E4, 2.5 μl of HLA-E tetramer reagent was used, while 5 μl was used for 18H3 and HP-3D9. Saturating concentrations of each antibody was used in this assay. The percent blocking was calculated as 100−((percent HLA-E positive for anti-CD94 antibody)/(percent HLA-E positive for isotype)*100).
Healthy donor PBMCs were seeded in 96-well plates at a density of 100,000 cells per well, incubated with human Fc block (Biolegend) and cell viability dye (Thermo Fisher) for 30 minutes on ice and protected from light. The cells were washed once with FACS buffer (PBS with 2% IgG low FBS). anti-CD94 antibodies at EC80 concentrations were incubated with cells for 30 minutes on ice and protected from light. After incubation with the anti-CD94 antibodies, the cells were washed and incubated with HLA-E tetramer PE (Creative Biolabs), anti-CD3 pacific blue-labelled, and anti-CD56 FITC-labelled antibodies (Biolegend) for 30 minutes on ice and protected from light. The cells then received a final wash in FACS buffer before quantification on the Cytoflex (Beckman Coulter). All data acquisition and fluorescence compensation were performed using CytoFlex (Beckman Coulter, Atlanta, GA). Data analysis was performed using FlowJo software. NK cells were identified through gating on lymphocytes on the forward and side scatter, followed by doublet and dead cell exclusion, and gated on the CD3−CD56+ population. HLA-E expression was then quantified on the CD3−CD56+NK cell population. Percent blocking was calculated as 100−((percent HLA-E positive for anti-CD94 antibody)/(percent HLA-E positive for isotype)*100).

[3] = target: T2, cynomolgus CD94 expressed on HEK293 cells (cynomolgus monkey, UniProt Q68VD4 1-179); assay: flow cytometry, cynomolgus CD94-expressing HEK293 cells
T2 construct: also called cyno-CD94; cynomolgus monkey CD94
T2 sequence: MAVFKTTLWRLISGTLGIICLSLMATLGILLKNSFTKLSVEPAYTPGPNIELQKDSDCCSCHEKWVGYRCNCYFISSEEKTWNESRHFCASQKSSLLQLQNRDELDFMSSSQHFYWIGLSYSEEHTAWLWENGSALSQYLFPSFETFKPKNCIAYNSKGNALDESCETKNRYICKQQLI
Description: (§1) Anti-CD94 hybridoma supernatants were screened on cynomolgus CD94-expressing HEK293 cells by flow cytometry for cross-reactivity to cynomolgus CD94. HP-3D9 is a commercial anti-CD94 antibody that was used as a negative control. Mouse IgG1, IgG2a, IgG2b and IgG3 were used as negative controls. […] Commercially available anti-CD94 antibodies were used to test cynomolgus cross-reactivity. 18H3 was used as a positive control. The MFI of each antibody was normalized to the MFI of its respective isotype.
(§2) Cynomolgus CD94-expressing HEK293 cells were seeded in 96-well plates at a density of 100,000 cells per well, incubated with cell viability dye (Thermo Fisher) for 30 minutes on ice and protected from light. The cells were washed once with FACS buffer (PBS with 2% IgG low FBS). Hybridoma supernatants, anti-CD94 antibodies and isotype controls were incubated with cells for 30 minutes on ice and protected from light. […] After incubation, the cells received a final wash in FACS buffer before quantification on the Cytoflex (Beckman Coulter). All data acquisition and fluorescence compensation were performed using CytoFlex (Beckman Coulter, Atlanta, GA). […] CD94 expression was then quantified on this population. […]

[4] = target: T1, human CD94 expressed on cells (human …); assay: flow cytometry titration on CD3-CD56+ NK cells in healthy donor PBMCs; 'Affinity on Human NK Cells'; the filing derives these affinities as EC50 of titration curves (the 2.6nM of 18H3 is labelled EC50 in FIG. 1)
Description: Healthy donor PBMCs were seeded in 96 well plates at a density of 100,000 cells per well, incubated with human Fc block (Biolegend) and cell viability dye (Thermo Fisher) for 30 minutes on ice and protected from light. The cells were washed once with FACS buffer (PBS with 2% IgG low FBS). anti-CD94 antibodies at concentrations of 100 nM to 0.046 nM, 1:3-fold dilutions, were incubated with cells for 30 minutes on ice and protected from light. The cells were then washed and incubated with goat IgG anti-mouse Fey specific AF647 secondary antibody or goat (Fab)2 fragment anti-human Fey specific AF647 secondary antibody (Jackson immuno research), anti-CD3 pacific blue-labelled and anti-CD56 FITC-labelled antibodies (Biolegend) for 30 minutes on ice and protected from light. After incubation, the cells received a final wash in FACS buffer before quantification on the Cytoflex (Beckman Coulter). All data acquisition and fluorescence compensation were performed using CytoFlex (Beckman Coulter, Atlanta, GA). Data analysis was performed using FlowJo software. NK cells were identified through gating on lymphocytes on the forward and side scatter, followed by doublet and dead cell exclusion, and gated on the CD3−CD56+ population. CD94 expression was then quantified on the CD3−CD56+NK cell population. […]
The affinity of the antibody clones was also assessed by flow cytometry analysis.

[5] = target: T2, cynomolgus CD94 expressed on HEK293 …; assay: flow cytometry, hybridoma supernatant on cynomolgus CD94-expressing HEK293 cells
Description: as §1, §2

| Binder | percent decrease in MFI (antibody internalization assay), comparing 0.5 hours to 24 hours at 37° C. [1] [%] | HLA-E Blocking [2] [%] | binding result [3] | EC50 [4] [nM] | binding result [5] |
| --- | --- | --- | --- | --- | --- |
| B1 | 32 | 0 | binds | 7 | – |
| B2 | 18 | 0 | – | 75 | binds |
